Measurements from the RNAGym collection of RNA variant scans (doi:10.1073/pnas.2313332121).

B1: TPR t1 (parent)
chain: GACCAAUCUGCCCUCAGAGCUCGAGAACAUCUUCGGAUGCAGAGGAGGCAGGCUUCGGUGGCGCGAUAGCGCCAACGUCCUCAACCUCCAAUGCAUCCCACCACAUGAUGAUGCCUGAAGAGCCUUGGUUUUUUG

Variants of: B1
Experiment: polymerase ribozyme fitness, log enrichment relative to wild type (log ratio); higher = more active; in vitro selection for triplet polymerase activity
How it was run: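 Each subunit of a heterodimeric triplet polymerase ribozyme was mutagenized into a library by PCR, transcribed, and subjected to one round of in vitro selection, run in triplicate. Libraries were annealed with a biotinylated primer, the partner subunit and triplets, incubated frozen at −7 °C, and extended constructs were gel-excised, captured on streptavidin beads and recovered by RT-PCR. Input and output libraries were sequenced on Illumina, keeping genotypes with ≥10 input reads and ≥1 read per output. Fitness is log base 2 of genotype enrichment divided by wild-type enrichment, from inverse-variance-weighted replicate averages.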

Variant	polymerase ribozyme fitness (log ratio)
GACCAAUCUGACCUCAGAGCUCGAGAACAUCUUCGGAUGCAGAGGAUGCAGGCUUAGGUGGCGCGAUAGCGCCAACGUCCUCAACAUCCAAUGCAUCCCACCACAGGAUGAUGCCUGAAGAGCCUUGGUUUUUUG	-3.84
GACCAAUCUGACCUCAGAGCUCGAGAACAUCUUCGGAUGCAGAGGAGGCAGGCUUCGGUGGCGCGAUAGCGCCAACGUCCUCAACCUCCAAUGCAUCCCACCACAUGAUGAUGCUUGAAGAGCCUUGGUUUUUUG	-2.42
GACCAAUCUGACCUCAGAGCUCGAGAACAUCUUCGGAUGCAGAGUAGGCAGGCUUCGGUGGCUCGAUAGCGCCAACGUCCUCAACCUCCAAUGCAUCCCACCACAUGAUGAUGCCUGAAGAGCCUUGGUUUUUUG	-3.75
GACCAAUCUGACCUCAGAGCUCGAGAACAUCUUCGGAUACAGUGGAGGCAGGCUUCGGCGGCGCGAUAGCGCCAACGUCCUCAACCUCCACUGCAUCCCACCACAUGAUGAUACCUGGAGAGCGAUGGUUUUUUG	-4.98
GACCAAUCUGACCUCAGAGCUCGAGAACAUCUUCGGAUGCAGAGGAAGCAGGCUUCGGUGGCGCGAUAUCGCCAACUUCCUCAACCUCCAAUGCAUCCCACCACAUGAUGAUGCCUGAAGAGCCUUGGUUUUUUG	-1.86
GACCAAUCUGACCUCAGAGCUCGAGAACAUCUUCGGAUGCAGAGGAGGCAGUCUUCGGUGGCGCGAUAGCGCCAACGUCCUCAACCUCCAAUGCAUCCCACCACAUGAUGAUGCCUGAAGAGCCUUGGUUUUUUG	-2.14
GACCAAUCUGACCUCAGAGCUCGAGAACAUCUUCGGAUGCAGAGGAGGCAGACUUCGGUGGCGCGAUAGCGCCAACGUCCUCAACCUCCAAUGCAUCCCACCACAUGAUGAUGCCUGAAGAGCCUUGGUUUUUUG	-1.58
GACCAAUCUGACCUCAGAGCUCGAGAACAUCUUCGGAUGCAGAGUAGGCAGGCUUCGGUGGCGAGAUAGCGCCAACGACCUCAACCUCCAAUGCCUCCCACCACAUGAUGAUUCCUGAAGAGCCUUGGUUUUUUG	-7.43
GACCAAUCUGACCUCAGAGCUCGAGAACAUCUUCGGAUGCAUAGGAGGCAGGCUUCGGUGGCGCGAUAGCGCCAACGUCCUCAACCUCCAAUGCAUCCCACCACAUGAUGAUGCCUGAAGAGCCUUGGUUUUUUG	-2.71
GACCAAUCUGACCUCAGAGCUCGAGAACAUCUUCGGAUGCAGAGGAAGCAGGCUUCGGUGGCGCGAUAGCGCCAACGUCCUCAACCUCCAAUGCAUCCCACAACAUGAUGAUGCCUGAAGAGCCUUGGUUUUUUG	-4.79
GACCAAUCUGACCUCAGAGCUCGAGAACAUCUUCGAAUGCAGAGGAGGCAGGCUUCGGUGGCGCGAUAGCGCCAACGUUCUCAACCACCAAUGCAUCCCACCACAUGAUGAUGCCUGAAGAGCCUUGGUUUUUUG	-4.09
GACCAAUCUGACCUCAGAGCUCGAGAACAUCUUCGGAUGCAGAGGAGGCAGGCUUCGCUGGCGCGAUAGCGCCAACGUCCUCAACCUCCAAUGCAUCCCACCACAUGAUGAUGCCUGAAGAGCCUUGGUUUUUUG	-2.25
GACCAAUCUGACCUCAGAGCUCGAGAACAUCUUCGGAUGCAGAGUAGGUAGGCUUCGGUGGCGCGAUAGUGCCAACGUCCUCAACCACCAAUGCAUCCCACCACAUGAUGAUGCCUGAAGAGCCUUGGUUUUUUG	-3.95
GACCAAUCUGACCUCAGAGCUCGAGAACAUCUUCGGAUGCAGAGGAGGCAGGCUUCGGUGGCGCGAUAGCGCCAACGUCCUCAACCUCCAAUGCAUCUCACCACAUGAUGAUGCCUGAAGAGCCAUGGUUUUUUG	-2.97
GACCAAUCUGACCUCAGAGCUCGAGAACAUCUUCGGAUGCAGAGGAAGCAGGCUUCGGUGUCGCGAUAGCGCCAACGUCCUCAACCUCCAAUGCAUCCCACCACUUGAUGAUGCCUGAAGAGCCUAGGUUUUUUG	-5.18
GACCAAUCUGACCUCAGAGCUCGAGAACAUCUUCGGAUUCAGAGGAGGCAGGCUUCGGUGGCGCGAUAGCGCCAACGUCCUCAACCUCCAAUGCAUCCCACCACAUGAUGAUGCCUGAAGAGCCUUGGUUUUUUG	-1.81
GACCAAUCUGACCUCAGAGCUCGAGAACAUCUUCGGAUGCAGAGGAGUCAGGCUUCGGUGGCGCGAUAGCGCCAACGUCCUCAACCUCCAAUGCAGCCCACCACAUGAUGACGCCUGAAGAGCCUUGGUUUUUUG	-1.36
GACCAAUCUGACCUCAGAGCUCGAGAACAUCUUCGGAUGCAGAGGAAGCAGGCUUCGGUGGCGCGAUAGCGCCAACCUCCUCAGCCUCCAAUGCAUCCCACCACAUGAUGAUGCCUGAAGAGCCUUGAUUUUUUG	-4.94
GACCAAUCUGACCUCAGAGCUCGAGAACAUCUUCGGAUGCAGAGGAGGCAGGCUUCGGUUGCGCGAUAGCGCCAACGUCCUCAACCUCCAAUGCAUACCACCACAUGAUGAUGCCUGAAGAGUCUUGGUUUUUUG	-2.32
GACCAAUCUGACCUCAGAGCUCGAGAACAUCUUCGGAUGCAGAGGAGGCAGGCUUCGGUUGCGCGAUAGCCCCAACGUCCUCAACCCCCAAUGCAUCCCACCACAUGAUGACGCCUAAAGAGCCUUGGUCUUUUG	-7.15
GACCAAUCUGACCUCAGAGCUCGAGAACAUCUUCGGAUGCAGAGGAGGCAGGCUUCGGUAGCGCGAUAGCGCCAACGUCCUCAACCUCCAAUGCAUCCCAACACAUGAUGAUGCCUGAAGAGCGUUGGUUUUUUG	0.624

Variant	polymerase ribozyme fitness (log ratio)
GACCAAUCUGACCUCAAAGCUCGAGAACAUCUUCGGAUGCAGAGGAGGCAGGCUUCGGUGGCGCGAUAGCGCCAACGUCCUCAACCUCCAAUGCAUCCCACCACAUGAUGAUGCCUGAAGAGCCUUGGUUUUUUG	-6.16
GACCAAUCUGACCUCACAGCUCGAGAACAUCUUCGGAUGCAGAGGAGGCAGGCUUCGGUGGCGCGAUAGCGCCAACGUCCUCAACCUCCAAUGCAUCCCACCACAUGAUGAUGCCUGAAGAGCCUUGGUUUUUUG	-4.25
GACCAAUCUGACCUCAGAGCUCGAGAACAUCUUCGGAUGCAGAGGAGGCAGGCUUCGGUGGCGCGAUAGCGCCAACGUCCUCAACCUCCAAUGCAUCCCACCACAUGAUGAUGCCUGAAGAGCAUUGGUUUUUUG	1.26
GACCAAUCUGACCUCAUAGCUCGAGAACAUCUUCGGAUGCAGAGGAGGCAGGCUUCGGUGGCGCGAUAGCGCCAACGUCCUCAACCUCCAAUGCAUCCCACCACAUGAUGAAGCCUGAAGAGCCUUGGUUGUUUG	-3.56
GACCAAUCUGACCUCAGAGCUCGAGAACAUCUUCGGAUGCACAGGAGGCAGGCUUCGGUGGCGCGAUAGCGCCAACGUCCUCAACCUCCAAUGCAUCCCACCACAUGAUGAUGCCUGGAGAGCCUUGGUUUUUUG	-3.71
GACCAAUCUGACCUCAGAGCUCGAGAACAUCUUCGGAUGCAAAGGAGGCAGGCAUCGGUGGCGUGAUAGCGCCAACGUCCUCAACCUCCAAUGCAUCCCACCACAUGAUGAUGCCUGAAGAGCCUUGGCUUUUUG	-4.74
GACCAAUCUGACCUCAGAGCUCGAGAACAUCUUCGGAUGCAGAGGAGGCAGGCUUCGCGGGCGCGAUAGCGCCAACGUCCACAACCUCCAAUGCAUCCCACCACAUGAUGAUGCCUGAAGAGCCUUGGUUUUUUG	-2.19
GACCAAUCUGACCUCAUAGCUCGAGAACAUCUUCGGAUGCAGAGGAGGCAGGCUUCGGUGGCGCGAUAGCGCCAACGUCCUCAACCUCCAAUGCAUCCCACCACAUGAUGAUGCGUGAAGAGGCUCGGUUUUUUG	-3.25
GACCAAUCUGACCUCAGAGCUCGAGAACAUCUUCGUAUGCAGAGGAGCCAGGCUUCGGUGGGGCGAUAGCGCCAACGUCCUCAACCUCCAAUGCAUCCCACCACAUGAUGAUGCAUGAACAGCCUUGGUUUUUUG	-4.4
GACCAAUCUGACCUCAGAGCUCGAGAACAUCUUCGGAUGCAGAGGAGGCAGGCUUCGGUGGCGCGAUAGCGCCAACGUCCUCAACCUCCAAUGCAUCCCAACACAUGAUGAUGCCUGAAGAGCCUUGGUUUUUUG	-3.16
GACCAAUCUGACCUCAGAGCUCGAGAACAUCUUCGGAUGCAGAGUAGGCAGGCUUCGGUGGCGCGAUAGCCCCAACGUCCUCAACCUCCAAUGCAUCCCACCACAUGAUGAUGCCUGAAGCGCCUUGGUUUAUUG	-0.245
GACCAAUCUGACCUCAGAGCUCGAGAACAUCUUCGGAUGCAGACGAGUCAGGCUUCGGUGGCGCGAUAGCGCCAACGUCCUCAACCUCCAAUGCAUCCCACCACAUGAUGAUGCCUGAAGAGCCUUGGUUUUUUG	-4.1
GACCAAUCUGACCUCAGAGCUCGAGAACAUCUUCGGAUGCAGAGGAGGCAGGCUUCUGUGGCGCGAUAGCGCCAACGUCCUCAACCUCCAAUUCAUCCCACCACAUGAUGAUGCCUGAAGAGCCUUGGUUUUUUG	-3.77
GACCAAUCUGACCUCAGAGCUCGAGAACAUCUUCGGAUGCAGAGGAGGCAGGCUUCGGUGGCGCGAUAGCGCCAACGUCCUCAACCUCCAAUGCAUCCCACCACAUGAUGAUGCCUGAAGAGGCUUGGUUUUUUG	1.15
GACCAAUCUGACCUCAGAGCUCGAGAACAUCUUCGGAUGCAGAGGAAGCAGGCUUCGGUGGCGCGAUAGCGCCAACGUCCUCAACCUCCAAUGCAUCCCACCACAUGAUGAUGCCUGAAGAGCCUUGGUUUUUUG	-3.21
GACCAAUCUGACCUCAGAGCUCGAGAACAUCUUCGGAUGCACAGGAGGCACGCUUCUGUGGUGCGAUAGCGCCAACGCCCUCAACCUCUAAUGCAUCCCACCACAUGAUGAUACCUGAAGACCCUUGGUUUUUUG	-6.22
GACCAAUCUGACCUCAGAGCUCGAGAACAUCUUCGGAUUCAGAGGAGGCAGGCUUCGGUGGCGCGAUAGCACCAACGUCCUCAACCUCCAAUGCAUCCCACCACAUGAUGAUGCCUGAAGAGCCUUGGUUUUUUG	-2.63
GACCAAUCUGACCUCAGAGCUCGAGAACAUCUUCGGAUACAGAGGAGGCAGGCUUCGGUGGCGCGAUAGCGCCAACGUCCUCAACCUCCAAUGCAUCCCACCACCUGAUGAUGCCUGAAGAGCCUUGGUUUUUUG	-3.91
GACCAAUCUGACCUCAGAGCUCGAGAACAUCUUCGGAUGCAGAGCAGGCAGGCUUCGGUGGUGCGAUAGCGCCAACGUCCUCAACCUCCAAUGCAUCCCACCACAUGAUGAUGCCUGAAGAGCCUUGGUUUUUUG	-2.56
GACCAAUCUGACCUCACAACUCGAGAACAUCUUCGGAUACAGAGGAGGCAGGCUUCGGUGGCGCGAUAUCGCCAACGUCCUCAACCUCCAAUGCAUCCCACCACAUGAUGAUGCCUGAAGAGGCUUGGUUUUUUG	-5.74
GACCAAUCUGACCUCAGAGCUCGAGAACAUCUUCGAAUGCAGAGGAGGCGGGCUUCGGUGGCGCGAUAGCGCCAACGUCCUCAACCUCCAAUGCAUCCCACCACAUGAUGAUCCCUGAAGAGCCUUGGUUUUUUG	-4.17
